Here are results for 24 molecules from patent publication US20090291081A1 (AbbVie / Abbott, published 2009).

Values joined by “and” are separate entries in the source; they are usually repeats but may differ in a detail not shown here. Identical values can stand only once.

The target in test [1] is human IL-1β (human, UniProt P01584 117-269). Description: cell-based or functional assay.
The next test has as its target T1, human IL-1α (human, UniProt P01583 113-271).
T1 sequence (looked up): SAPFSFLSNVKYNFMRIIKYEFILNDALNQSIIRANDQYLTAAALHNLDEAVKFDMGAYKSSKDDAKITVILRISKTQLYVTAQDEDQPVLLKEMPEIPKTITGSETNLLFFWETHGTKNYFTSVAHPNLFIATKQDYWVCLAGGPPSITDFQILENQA
The experiment in a line: cell-based or functional assay.

In test [2] the target is T2, human IL-1β (human, UniProt P01584 117-269).
T2 construct: also called IL-1beta; hIL-1β
The experiment in a line: Table 60 heading; dAbs from selection on antigen.

B1: ABT2-108-504/ABT1-122 hu IgG1/K wt (bispecific antibody, V domains shown)
VH: EVQLLESGGGLVQPGGSLRLSCAASGFTFADEGMMWVRQAPGKGLEWVSRIGQDGKNTYYADSVKGRFTISRDNSKNTLYLQMNSLRAEDTAVYYCAKYTGRVGVHHLFDYWGQGTLVTVSS
VL: DIQMTQSPSSLSASVGDRVTITCRASQPIWTELNWYQQKPGKAPKLLIYGSSSLQSGVPRFSGSGSGTDFTLTISSLQPEDFATYYCQQFAYFPATFGQGTKVEIKR
Regarding B1, the “IL-1β IC50” value in the test with human IL-1β [1] came out at 15 nM. For the same molecule, the “IL-1α IC50” value in the test with human IL-1α came out at 1500 nM.

B2: ABT2-108-617/ABT1-122 hu IgG1/K wt (bispecific antibody, V domains shown)
VH: EVQLLESGGGLVQPGGSLRLSCAASGFTFAEYTMMWVRQAPGKGLEWVSRIGQDGKNTYYADSVKGRFTISRDNSKNTLYLQMNSLRAEDTAVYYCAKYTGRIFTHHLFDYWGQGTLVTVSS
VL: DIQMTQSPSSLSASVGDRVTITCRASQPIWTELNWYQQKPGKAPKLLIYGSSSLQSGVPRFSGSGSGTDFTLTISSLQPEDFATYYCQQFAYFPATFGQGTKVEIKR
As for B2, the “IL-1β IC50” value with human IL-1β [1] came to 0.05 nM. Further, the “IL-1α IC50” value in the test with human IL-1α amounted to 150 nM.

B3: ABT2-108-612/ABT1-122 hu IgG1/K wt (bispecific antibody, V domains shown)
VH: EVQLLESGGGLVQPGGSLRLSCAASGFTFAEYTMMWVRQAPGKGLEWVSRIGQDGKNTYYADSVKGRFTISRDNSKNTLYLQMNSLRAEDTAVYYCAKYTGRIMGHHLFDYWGQGTLVTVSS
VL: DIQMTQSPSSLSASVGDRVTITCRASQPIWTELNWYQQKPGKAPKLLIYGSSSLQSGVPRFSGSGSGTDFTLTISSLQPEDFATYYCQQFAYFPATFGQGTKVEIKR
B3: the “IL-1β IC50” value with human IL-1β [1] was 1 nM and 0.45 nM. The “IL-1α IC50” value with human IL-1α was 100 nM.

B4: ABT2-108-534x/ABT1-122 hu IgG1/K wt (bispecific antibody, V domains shown)
VH: EVQLLESGGGLVQPGGSLRLSCAASGFTFADEGMMWVRQAPGKGLEWVSRITYSGKNTYYADSVKGRFTISRDNSKNTLYLQMNSLRAEDTAVYYCAKYTGRIFSHHLFDYWGQGTLVTVSS
VL: DIQMTQSPSSLSASVGDRVTITCRASQPIWTELNWYQQKPGKAPKLLIYGSSSLQSGVPRFSGSGSGTDFTLTISSLQPEDFATYYCQQFAYFPATFGQGTKVEIKR
For B4, the “IL-1β IC50” value with human IL-1β [1] was 0.025 nM and 0.035 nM. Also, in the test with human IL-1α, the “IL-1α IC50” value is 1000 nM.

B5: ABT2-108-603/ABT1-122 hu IgG1/K wt (bispecific antibody, V domains shown)
VH: EVQLLESGGGLVQPGGSLRLSCAASGFTFAEYTMMWVRQAPGKGLEWVSRITDAGKNTYYADSVKGRFTISRDNSKNTLYLQMNSLRAEDTAVYYCAKYTGRVGVHHLFDYWGQGTLVTVSS
VL: DIQMTQSPSSLSASVGDRVTITCRASQPIWTELNWYQQKPGKAPKLLIYGSSSLQSGVPRFSGSGSGTDFTLTISSLQPEDFATYYCQQFAYFPATFGQGTKVEIKR
For the molecule B5, in the test with human IL-1β [1], the “IL-1β IC50” value turned out to be 10 nM. For the same molecule, the “IL-1α IC50” value with human IL-1α is 1500 nM.

B6: ABT2-108-521 (other)
VH: EVQLLESGGGLVQPGGSLRLSCAASGFTFAEYTMMWVRQAPGKGLEWVSRIGQDGKNTYYADSVKGRFTISRDNSKNTLYLQMNSLRAEDTAVYYCAKYTGRILGHHLFDYWGQGTLVTVSS
notes: VH dAb
For B6, the binding result in the test with human IL-1β [2] is “binds”.

B7: ABT2-108-537x/ABT1-122 hu IgG1/K wt (bispecific antibody, V domains shown)
VH: EVQLLESGGGLVQPGGSLRLSCAASGFTFADEGMMWVRQAPGKGLEWVSRIGQDGKNTYYRMDVKGRFTISRDNSKNTLYLQMNSLRAEDTAVYYCAKYTGRILGHHLFDYWGQGTLVTVSS
VL: DIQMTQSPSSLSASVGDRVTITCRASQPIWTELNWYQQKPGKAPKLLIYGSSSLQSGVPRFSGSGSGTDFTLTISSLQPEDFATYYCQQFAYFPATFGQGTKVEIKR
B7: in the test with human IL-1β [1], the “IL-1β IC50” value is 0.007 nM and 0.02 nM. Further, the “IL-1α IC50” value with human IL-1α is 1000 nM.

B8: ABT2-108-518/ABT1-122 hu IgG1/K wt (bispecific antibody, V domains shown)
VH: EVQLLESGGGLVQPGGSLRLSCAASGFTFAEYTMMWVRQAPGKGLEWVSRIGQDGKNTYYRMDVKGRFTISRDNSKNTLYLQMNSLRAEDTAVYYCAKYTGRVGVHHLFDYWGQGTLVTVSS
VL: DIQMTQSPSSLSASVGDRVTITCRASQPIWTELNWYQQKPGKAPKLLIYGSSSLQSGVPRFSGSGSGTDFTLTISSLQPEDFATYYCQQFAYFPATFGQGTKVEIKR
For B8, the “IL-1β IC50” value with human IL-1β [1] was 0.5 nM. In addition, in the test with human IL-1α, the “IL-1α IC50” value is 400 nM.

B9: ABT2-108-509 (other)
VH: EVQLLESGGGLVQPGGSLRLSCAASGFTFAEYTMMWVRQAPGKGLEWVSRITYSGKNTYYADSVKGRFTISRDNSKNTLYLQMNSLRAEDTAVYYCAKYTGRVGVHHLFDYWGQGTLVTVSS
notes: VH dAb
As to B9, the binding result with human IL-1β [2] is listed as “binds”.

B10: ABT2-108-524 (other)
VH: EVQLLESGGGLVQPGGSLRLSCAASGFTFAEYTMMWVRQAPGKGLEWVSRIGQDGKNTYYADSVKGRFTISRDNSKNTLYLQMNSLRAEDTAVYYCAKYTGRVFNHHLFDYWGQGTLVTVSS
notes: VH dAb
As to B10, the binding result with human IL-1β [2] is recorded as “binds”.

B11: ABT2-108-504 (other)
VH: EVQLLESGGGLVQPGGSLRLSCAASGFTFADEGMMWVRQAPGKGLEWVSRIGQDGKNTYYADSVKGRFTISRDNSKNTLYLQMNSLRAEDTAVYYCAKYTGRVGVHHLFDYWGQGTLVTVSS
notes: VH dAb
Turning to B11, the binding result with human IL-1β [2] is recorded as “binds”.

B12: ABT2-108-511 (other)
VH: EVQLLESGGGLVQPGGSLRLSCAASGFTFAEYTMMWVRQAPGKGLEWVSRIGQDGKNTVIRDSVKGRFTISRDNSKNTLYLQMNSLRAEDTAVYYCAKYTGRVGVHHLFDYWGQGTLVTVSS
notes: VH dAb
On to B12, for which, in the test with human IL-1β [2], the binding result is on record as “binds”.

B13: ABT2-108-518 (other)
VH: EVQLLESGGGLVQPGGSLRLSCAASGFTFAEYTMMWVRQAPGKGLEWVSRIGQDGKNTYYRMDVKGRFTISRDNSKNTLYLQMNSLRAEDTAVYYCAKYTGRVGVHHLFDYWGQGTLVTVSS
notes: VH dAb
Consider B13, for which, in the test with human IL-1β [2], the binding result was “binds”.

B14: ABT2-108-527 (other)
VH: EVQLLESGGGLVQPGGSLRLSCAASGFTFAEYTMMWVRQAPGKGLEWVSRIGQDGKNTYYADSVKGRFTISRDNSKNTLYLQMNSLRAEDTAVYYCAKYTGRVFKHHLFDYWGQGTLVTVSS
notes: VH dAb
As to B14, in the test with human IL-1β [2], the binding result was “binds”.

B15: ABT2-65-166/ABT1-95-184 hu IgG1mut 234, 235/K (bispecific antibody, V domains shown)
VH: EVQLLESGGGLVQPGGSLRLSCAASGFTFEDYQMGWVRQAPGKGLEWVSSISAMGGRTYYADSVKGRFTISRDNSKNTLYLQMNSLRAEDTAVYYCAQNLVRLGRSRWMFDYWGQGTLVTVSS
VL: DIQMTQSPSSLSASVGDRVTITCRASRTPVRNLRWYQQKPGKAPKLLIYSRSYLEPGVPSRFSGSGSGTDFTLTISSLQPEDFATYHCLQGYRWPPTFGQGTKVEIKR
B15: in the test with human IL-1β [1], the “IL-1β IC50” value turned out to be 0.15 nM. The “IL-1α IC50” value with human IL-1α is 0.068 nM.

B16: ABT2-65/ABT1-122 hu IgG1/K wt (bispecific antibody, V domains shown)
VH: EVQLLESGGGLVQPGGSLRLSCAASGFTFEDYQMGWVRQAPGKGLEWVSSISAMGNRTYYADSVKGRFTISRDDSKNTLYLQMNSLRAEDTAVYYCAKNLVRTQSKMWMFDYWGQGTLVTVSS
VL: DIQMTQSPSSLSASVGDRVTITCRASQPIWTELNWYQQKPGKAPKLLIYGSSSLQSGVPRFSGSGSGTDFTLTISSLQPEDFATYYCQQFAYFPATFGQGTKVEIKR
As for B16, in the test with human IL-1β [1], the “IL-1β IC50” value stood at 2000 nM. Moreover, the “IL-1α IC50” value with human IL-1α was determined as 2000 nM.

B17: ABT2-108-521/ABT1-95-A3 hu IgG1 wt (bispecific antibody, V domains shown)
VH: EVQLLESGGGLVQPGGSLRLSCAASGFTFAEYTMMWVRQAPGKGLEWVSRIGQDGKNTYYADSVKGRFTISRDNSKNTLYLQMNSLRAEDTAVYYCAKYTGRILGHHLFDYWGQGTLVTVSS
VL: DIQMTQSPSSLSASVGDRVTITCRASKPGVRNMRWYQQKPGKAPKLLIYSVSYLEPGVPSRFSGSGSGTDFTLTISSLQPEDFATYHCLQGYRWPPTFGQGTKVEIKR
Turning to B17, the “IL-1β IC50” value with human IL-1β [1] was 0.098 nM. Moreover, in the test with human IL-1α, the “IL-1α IC50” value turned out to be 0.027 nM.

B18: ABT2-65-8/ABT1-122 hu IgG1/K wt (bispecific antibody, V domains shown)
VH: EVQLLESGGGLVQPGGSLRLSCAASGFTFEDYQMGWVRQAPGKGLEWVSSISAMGNRTYYADSVKGRFTISRDDSKNTLYLQMNSLRAEDTAVYYCAQNLVRMDSRRWMFDYWGQGTLVTVSS
VL: DIQMTQSPSSLSASVGDRVTITCRASQPIWTELNWYQQKPGKAPKLLIYGSSSLQSGVPRFSGSGSGTDFTLTISSLQPEDFATYYCQQFAYFPATFGQGTKVEIKR
As to B18, the “IL-1β IC50” value with human IL-1β [1] amounted to 2.7 nM. Besides, the “IL-1α IC50” value with human IL-1α came out at 1000 nM.

B19: ABT2-65-203 (other)
VH: EVQLLESGGGLVQPGGSLRLSCVASGFTFEDYQMGWVRQAPGKGLEWVSSISAMGFRTYYADSVKGRFTISRDNSKNTLYLQMNSLRAEDTAVYYCAQNLVRLGRSRWMFDYWGQGTLVTVSS
notes: VH dAb
In the case of B19, in the test with human IL-1β [2], the binding result was “binds”.

B20: ABT2-65-B3 (other)
VH: EVQLLESGGGLVQPGGSLRLSCVASGFTFEDYQMGWVRQAPGKGLEWVSSISAMGNRAYYADSVKGRFTISRDDSKNTLYLQMNSLRAEDTAVYYCAQNLVRLGRSRWMFDYWGQGTLVTVSS
notes: VH dAb
Turning to B20, in the test with human IL-1β [2], the binding result is “binds”.

B21: ABT2-65-201 (other)
VH: EVQLLESGGGLVQPGGSLRLSCVASGFTFEDYQMGWVRQAPGKGLEWVSSISAMGRRTYYADSVKGRFTISRDNSKNTLYLQMNSLRAEDTAVYYCAQNLVRLGRSRWMFDYWGQGTLVTVSS
notes: VH dAb
As to B21, in the test with human IL-1β [2], the binding result is given as “binds”.

B22: ABT2-65-166S (other)
VH: EVQLLESGGGLVQPGGSLRLSCAASGFTFSDYQMGWVRQAPGKGLEWVSSISAMGGRTYYADSVKGRFTISRDNSKNTLYLQMNSLRAEDTAVYYCAQNLVRLGRSRWMFDYWGQGTLVTVSS
notes: VH dAb
As for B22, in the test with human IL-1β [2], the binding result is given as “binds”.

B23: ABT2-65-B2 (other)
VH: EVQLLESGGGLVQPGGSLRLSCVASGFTFEDYQMGWVRQAPGKGLEWVSSISAMGRRTYYADSVKGRFTISRDDSKNTLYLQMNSLRAEDTAVYYCAQNLVRLGRSRWMFDYWGQGTLVTVSS
notes: VH dAb
As to B23, the binding result with human IL-1β [2] is given as “binds”.

B24: ABT2-65-166SK (other)
VH: EVQLLESGGGLVQPGGSLRLSCAASGFTFSDYQMGWVRQAPGKGLEWVSSISAMGGRTYYADSVKGRFTISRDNSKNTLYLQMNSLRAEDTAVYYCAKNLVRLGRSRWMFDYWGQGTLVTVSS
notes: VH dAb
With B24, the binding result with human IL-1β [2] is recorded as “binds”.
